# Reference: patent US20110135636A1 (SYMPHOGEN A S, published 2011)
# What was measured:
# [1] = target: T1, full length human EGFR expressed on the cell surface (human, UniProt P00533 25-1210); assay: cell ELISA, IgG titrated on unfixed A431-NS cells after saturation with Fab 1030; given as ED50
# T1 construct: whole, on cells; also called EGFR on A431-NS cells; EGFR on HN5 cells
# Description: Cell ELISA: The ELISA was performed essentially as described in example 15 with modifications. Cells were left unfixed to allow conformational EGFR flexibility after antibody additions. Briefly, 10,000 A431-NS cells were grown in 96 well ELISA plates containing DMEM with added 0.5% FCS and 1% P/S at 37° C., 5% CO₂ overnight. […] 25 μl DMEM containing 1% BSA was added to wells used for testing of IgG antibodies without added Fab fragments. […] Next, wells were washed four times with PBS and 50 μl of a secondary monoclonal Mouse-anti-Human (Fc specific) HRP conjugate diluted 1:5000 in DMEM containing 1% BSA was added and incubated on ice for 30 min. Finally wells were washed four times with PBS and plates developed by adding 50 μl/well TMB substrate and read at 620 nm every 5-15-30 min. After incubation with substrate the reaction was stopped by addition of 1 M H₂SO₄ and absorbance read at 450 nm. The functional affinity expressed as ED50 values were calculated by subtraction of the average background binding with secondary reagent only, followed by normalization of the binding curves by plotting % maximal binding relative to each antibody tested.
# Investigations of antibody induced binding enhancements were determined by concurrent ELISA binding studies, employing same secondary antibody reagent and incubation times.
# [2] = target: T2, recombinant human EGFR extracellular domain with 6xHis (human, UniProt P00533 25-645); assay: SPR (BIAcore 2000); IgG captured on anti-human Fc, soluble EGFR ECD injected; Scatchard analysis
# T2 construct: In-house produced; also called 6xHis EGFR ECD; soluble human EGFR ECD; not shown: 6xHis tag
# Description: Kinetic analysis of the full length IgG antibodies of the invention was performed on a BIAcore 2000, employing an assay as described in (Canziani, Klakamp, et al. 2004, Anal. Biochem, 325:301-307) allowing measurement of monovalent affinities of whole IgG molecules against soluble antigen. […] The chip surface was regenerated in between cycles by stripping the captured antibody/antigen complexes with a 10 second injection of 100 mM H₃PO₄. […] The association rate constant (ka) and dissociation constant (kd) were evaluated globally from the generated sensograms with the BIA evaluation software 4.1 provided by the manufacturer.
# [3] = target: T3, Cynomolgus EGFR extracellular domain (Cynomolgus monkey (Macaca fascicularis), UniProt P55245 25-645 (rhesus entry)); assay: ELISA on coated Cynomolgus rEGFR ECD
# T3 construct: Cloned without signal peptide; also called Cynomolgus rEGFR ECD; Cynomolgus EGFR ECD
# Description: To verify that tested Anti-EGFR antibodies bound equally well to both Human and Cynomolgus EGFR ECD and accordingly warranting toxicology studies in Cynomolgus monkeys, serial four fold dilutions of antibodies beginning from 1 μg/ml were tested by ELISA for binding to recombinant Human and Cynomolgus EGFR ECD proteins. […] ELISA wells were coated with 50 μl/well of full length EGFR at a concentration of 1 μg/ml in PBS overnight at 4° C. The next morning wells were washed twice with PBS-T and blocked for one hour with 100 μl PBS-T-1% BSA at room temperature, followed by wash twice in PBS-T. Next 50 μl of serially diluted Anti-EGFR antibodies and control antibodies were added to wells and incubated for one hour at room temperature. After antibody incubation wells were washed five times with PBS-T, followed by incubation with 50 μl/well Streptavidin-HRP secondary reagent diluted 1:3000 in blocking buffer and incubation at room temperature for 30 min. Finally wells were washed five times with PBS-T and plates were developed by adding 50 μL/well TMB substrate and incubated at room temperature. After incubation the reaction was stopped by addition of 1 M H₂SO₄; 100 μl/well and plates were read at OD 450 nm.
EC50 [1] [nM],Kd [2] [nM],binding result [3],Binder
0.4,170,,"antibody 992 (antibody, human IgG1, kappa, V domains shown, Chimeric mouse/human IgG1 kappa; the VL entry includes the human kappa constant region) VH: EVQLQQPGSELVRPGASVKLSCKASGYTFTSYWMHWVKQRPGQGLEWIGNIYPGSRSTNYDEKFKSKATLTVDTSSSTAYMQLSSLTSEDSAVYYCTRNGDYYVSSGDAMDYWGQGTSVTVSS VL: DIQMTQTTSSLSASLGDRVTISCRTSQDIGNYLNWYQQKPDGTVKLLIYYTSRLHSGVPSRFSGSGSGTDFSLTINNVEQEDVATYFCQHYNTVPPTFGGGTKLEIKR"
,,binds,"antibody 1208 (antibody, human IgG1, kappa, V domains shown, Chimeric IgG1 kappa; also called clone 1208) VH: EVQLVESGGGLVKPGGSLKLSCAASGFAFSSYDMSWVRQTPEKRLEWVAYIGSGDDNTHYPDSVKGRFTISRHNAKNTLYLQMSSLKSEDTAMYYCARQKYGNYGDTMDYWGQGTSVTVSS VL: DVVMTQTPLSLPVSLGDQASISCRSSQSLVHSNGNTYLHWYLQKPGQSPKLLIYKVSNRFSGVPDRFSGSGSGTDFTLKISRVEAEDLGVYFCSQSTHVPTFGGGTKLEIKR"
